Results published in IntAct's records for PubMed 25064736.

B1: Treacle protein (Homo sapiens), Q13428 (parent)
chain: MAEARKRRELLPLIYHHLLRAGYVRAAREVKEQSGQKCFLAQPVTLLDIYTHWQQTSELGRKRKAEEDAALQAKKTRVSDPISTSESSEEEEEAEAETAKATPRLASTNSSVLGADLPSSMKEKAKAETEKAGKTGNSMPHPATGKTVANLLSGKSPRKSAEPSANTTLVSETEEEGSVPAFGAAAKPGMVSAGQADSSSEDTSSSSDETDVEGKPSVKPAQVKASSVSTKESPARKAAPAPGKVGDVTPQVKGGALPPAKRAKKPEEESESSEEGSESEEEAPAGTRSQVKASEKILQVRAASAPAKGTPGKGATPAPPGKAGAVASQTKAGKPEEDSESSSEESSDSEEETPAAKALLQAKASGKTSQVGAASAPAKESPRKGAAPAPPGKTGPAVAKAQAGKREEDSQSSSEESDSEEEAPAQAKPSGKAPQVRAASAPAKESPRKGAAPAPPRKTGPAAAQVQVGKQEEDSRSSSEESDSDREALAAMNAAQVKPLGKSPQVKPASTMGMGPLGKGAGPVPPGKVGPATPSAQVGKWEEDSESSSEESSDSSDGEVPTAVAPAQEKSLGNILQAKPTSSPAKGPPQKAGPVAVQVKAEKPMDNSESSEESSDSADSEEAPAAMTAAQAKPALKIPQTKACPKKTNTTASAKVAPVRVGTQAPRKAGTATSPAGSSPAVAGGTQRPAEDSSSSEESDSEEEKTGLAVTVGQAKSVGKGLQVKAASVPVKGSLGQGTAPVLPGKTGPTVTQVKAEKQEDSESSEEESDSEEAAASPAQVKTSVKKTQAKANPAAARAPSAKGTISAPGKVVTAAAQAKQRSPSKVKPPVRNPQNSTVLARGPASVPSVGKAVATAAQAQTGPEEDSGSSEEESDSEEEAETLAQVKPSGKTHQIRAALAPAKESPRKGAAPTPPGKTGPSAAQAGKQDDSGSSSEESDSDGEAPAAVTSAQVIKPPLIFVDPNRSPAGPAATPAQAQAASTPRKARASESTARSSSSESEDEDVIPATQCLTPGIRTNVVTMPTAHPRIAPKASMAGASSSKESSRISDGKKQEGPATQVSKKNPASLPLTQAALKVLAQKASEAQPPVARTQPSSGVDSAVGTLPATSPQSTSVQAKGTNKLRKPKLPEVQQATKAPESSDDSEDSSDSSSGSEEDGEGPQGAKSAHTLGPTPSRTETLVEETAAESSEDDVVAPSQSLLSGYMTPGLTPANSQASKATPKLDSSPSVSSTLAAKDDPDGKQEAKPQQAAGMLSPKTGGKEAASGTTPQKSRKPKKGAGNPQASTLALQSNITQCLLGQPWPLNEAQVQASVVKVLTELLEQERKKVVDTTKESSRKGWESRKRKLSGDQPAARTPRSKKKKKLGAGEGGEASVSPEKTSTTSKGKAKRDKASGDVKEKKGKGSLGSQGAKDEPEEELQKGMGTVEGGDQSNPKSKKEKKKSDKRKKDKEKKEKKKKAKKASTKDSESPSQKKKKKKKKTAEQTV
B2: Nibrin (Homo sapiens), O60934 (parent)
chain: MWKLLPAAGPAGGEPYRLLTGVEYVVGRKNCAILIENDQSISRNHAVLTANFSVTNLSQTDEIPVLTLKDNSKYGTFVNEEKMQNGFSRTLKSGDGITFGVFGSKFRIEYEPLVACSSCLDVSGKTALNQAILQLGGFTVNNWTEECTHLVMVSVKVTIKTICALICGRPIVKPEYFTEFLKAVESKKQPPQIESFYPPLDEPSIGSKNVDLSGRQERKQIFKGKTFIFLNAKQHKKLSSAVVFGGGEARLITEENEEEHNFFLAPGTCVVDTGITNSQTLIPDCQKKWIQSIMDMLQRQGLRPIPEAEIGLAVIFMTTKNYCDPQGHPSTGLKTTTPGPSLSQGVSVDEKLMPSAPVNTTTYVADTESEQADTWDLSERPKEIKVSKMEQKFRMLSQDAPTVKESCKTSSNNNSMVSNTLAKMRIPNYQLSPTKLPSINKSKDRASQQQQTNSIRNYFQPSTKKRERDEENQEMSSCKSARIETSCSLLEQTQPATPSLWKNKEQHLSENEPVDTNSDNNLFTDTDLKSIVKNSASKSHAAEKLRSNKKREMDDVAIEDEVLEQLFKDTKPELEIDVKVQKQEEDVNVRKRPRMDIETNDTFSDEAVPESSKISQENEIGKKRELKEDSLWSAKEISNNDKLQDDSEMLPKKLLLTEFRSLVIKNSTSRNPSGINDDYGQLKNFKKFKKVTYPGAGKLPHIIGGSDLIAHHARKNTELEEWLRQEMEVQNQHAKEESLADDLFRYNPYLKRRR
partner: B1 chain

Variants of: B1
Conditions: with nbn_human NBN

Variant | effect of a mutation on the interaction
T210A | disrupting interaction strength

Variants of: B2
Conditions: with tcof_human TCOF1, Q13428

Variant | effect of a mutation on the interaction
R28A | disrupting interaction strength

Variants of: B2
Conditions: with tcof_human TCOF1, Q13428
Remark: another data set of the same source

Variant | effect of a mutation on the interaction
R28A;K160M | disrupting interaction strength
